The results in this text go back to patent US20200308299A1, “ANTI-GPC-1 ANTIBODY” (National University Corporation Kochi University, priority 2017, published 2020).

One experiment concerns TE14 cells. As to the kind of experiment: ADC assay combining anti-GPC-1 antibody and MMAF binding secondary antibody, TE14 cells. It counts as cell-based. As to conditions: primary antibody plus MMAF secondary antibody. The protocol:
FIG. 1 depicts a schematic diagram of an ADC used in an assay. This Example used a secondary antibody (MORADEC) to the anti-GPC1 antibody made in Example 1, to which an anticancer agent (MMAF) was bound via a linker.
2000 TE14 cells were added to a 96-well plate at 80 μl. The cells were cultured overnight at 37° C. in a 5% CO2 incubator. The next day, 10 μl of an anticancer agent bound secondary antibody and 10 μl of a primary antibody concentrated 10-fold relative to the final concentration was added to each well, so that the total amount was 100 μl. The cells were cultured for 6 days at 37° C. in a 5% CO2 incubator. The cell viability was measured by using a CellTiter-Glo Luminescent Cell Viability Assay reagent to detect the amount of ATP. RPMI1640+10% FBS+1% PS was used as the medium. The final concentrations of the primary antibody were 0, 0.004, 0.0156, 0.0625, 0.25, and 1.0 nM. 2 μg/ml of Fab-aMFc-CL-MMAF (model number: AM202AF-50, Moradec) was used as the secondary antibody.

The test system of a further experiment is DU145 cells. As to the kind of experiment: ADC assay combining anti-GPC-1 antibody and MMAF binding secondary antibody in DU145 cells. As to conditions: primary antibody plus MMAF secondary antibody, 3 days. Format: cell-based. The protocol: 2000 DU145 cells were added to a 96-well plate at 80 μl. The cells were cultured overnight at 37° C. in a 5% CO2 incubator. The next day, 10 μl each of anticancer agent binding secondary antibody (2 μg/ml) and primary antibody concentrated 10-fold relative to the final concentration was added to each well, so that the total amount was 100 μl. The cells were cultured for 3 days at 37° C. in a 5% CO2 incubator. The cell viability was measured by using a CellTiter-Glo Luminescent Cell Viability Assay reagent to detect the amount of ATP. RPMI1640+10% FBS+1% PS was used as the medium. The final concentrations of the primary antibodies were […]. 2 μg/ml of Fab-aMFc-CL-MMAF (model number AM202AF-50, Moradec) was used as the secondary antibody. The EC50 value was analyzed with GraphPad Prism 6. The same experiment was conducted using 4000 MDA-MB231 cells as the control.

B1: clone 01a017: anti-human Glypican-1 antibody, heavy chain SEQ ID NO: 138, light chain SEQ ID NO: 140 (antibody)
heavy: MKHLWFFLLLVAAPRWVLSEVQLQQSGGELVRPGTSVKMSCKAAGYTFTNYWIGWVKQRPGHGLEWIGDLYPGGGYTHYNEKFKGKATLTADTSSSTAYMQLSSLTSEDSAIYYCARERVYFDGSRYFDVWGAGTTVTVSSAKTTAPSVYPLAPVCGDTTGSSVTLGCLVKGYFPEPVTLTWNSGSLSSGVHTFPAVLQSDLYTLSSSVTVTSSTWPSQSITCNVAHPASSTKVDKKIEPRGPTIKPCPPCKCPAPNLLGGPSVFIFPPKIKDVLMISLSPIVTCVVVDVSEDDPDVQISWFVNNVEVHTAQTQTHREDYNSTLRVVSALPIQHQDWMSGKEFKCKVNNKDLPAPIERTISKPKGSVRAPQVYVLPPPEEEMTKKQVTLTCMVTDFMPEDIYVEWTNNGKTELNYKNTEPVLDSDGSYFMYSKLRVEKKNWVERNSYSCSVVHEGLHNHHTTKSFSRTPGK
light: MRLLAQLLGLLMLWVPGSSGSIVMTQTPKFLPVSAGDRVTMTCKASQSVGNNVAWYQQKPGQSPKLLIYYASNRYTGVPDRFTGSGSGTDFTFTISSVQVEDLAVYFCQQHYSSPWTFGGGTKLEIKRADAAPTVSIFPPSSEQLTSGGASVVCFLNNFYPKDINVKWKIDGSERQNGVLNSWTDQDSKDSTYSMSSTLTLTKDEYERHNSYTCEATHKTSTSPIVKSFNRNEC
As for B1, the “EC50 values against TE14 cells” value with TE14 cells is “excellent EC50 values”. In addition, in the experiment with DU145 cells, the “EC50 values against DU145 cells” value is given as “excellent EC50 values”.

B2: clone 01a042: anti-human Glypican-1 antibody, heavy chain SEQ ID NO: 162, light chain SEQ ID NO: 164 (antibody)
heavy: MKHLWFFLLLVAAPRWVLSQVQLQQPGAELAKPGASVKMSCKASGYTFTRYWMHWVKQRPGQGLEWIGYINPSSGYTEYNQKFKDKATLTADKSSSTAYMQLSSLTSEDSAVYYCVRLGDYSYYFDYWGQGTTLTVSSAKTTAPSVYPLAPVCGDTTGSSVTLGCLVKGYFPEPVTLTWNSGSLSSGVHTFPAVLQSDLYTLSSSVTVTSSTWPSQSITCNVAHPASSTKVDKKIEPRGPTIKPCPPCKCPAPNLLGGPSVFIFPPKIKDVLMISLSPIVTCVVVDVSEDDPDVQISWFVNNVEVHTAQTQTHREDYNSTLRVVSALPIQHQDWMSGKEFKCKVNNKDLPAPIERTISKPKGSVRAPQVYVLPPPEEEMTKKQVTLTCMVTDFMPEDIYVEWTNNGKTELNYKNTEPVLDSDGSYFMYSKLRVEKKNWVERNSYSCSVVHEGLHNHHTTKSFSRTPGK
light: MRLLAQLLGLLMLWVPGSSGDVVMTQTPLSLPVSLGDQASISCRSSQSIVHSNGNTYLEWYLQKPGQSPKLLIYKVSNRFSGVPDRFSGSGSGTDFTLKISRVEAEDLGVYYCFQGSHVPWTFGGGTKLELKRADAAPTVSIFPPSSEQLTSGGASVVCFLNNFYPKDINVKWKIDGSERQNGVLNSWTDQDSKDSTYSMSSTLTLTKDEYERHNSYTCEATHKTSTSPIVKSFNRNEC
On to B2, for which the “EC50 values against TE14 cells” value with TE14 cells is listed as “excellent EC50 values”. In the experiment on DU145 cells, the “EC50 values against DU145 cells” value is listed as “excellent EC50 values”.
